The record followed here is doi:10.1101/2020.06.17.153486 (bioRxiv, 2020).

In the assay the target is SARS-CoV-2 spike trimer (S trimer), soluble ectodomain (SARS-CoV-2, Wuhan-Hu-1 type, stabilised). The assay is described as follows: cryo-EM structure.

One may read the stoichiometry N as the number of molecules, sites or subunits per partner or assembly.

B1: 2-4 Fab (Fab, V domains shown)
VH: QVQLVQSGAEVKKPGASVKVSCKASGYTFTGYYMHWVRQAPGQGLEWMGWINPNSGGTNYTQMFQGRVTMTRDTSISTAYMEVSRLRSDDTAVYYCARDRSWAVVYYYMDVWGKGTTVTVSS
VL: QSALTQPPSASGSPGQSVTISCTGTSSDVGGYNYVSWYQQHPGKAPKLMIYEVSKRPSGVPDRFSGSKSGNTASLTVSGLQAEDEADYYCSSYAGSNNLVFGGGTKLTVL
For the molecule B1, the “stoichiometry N” value turned out to be 3 Fab per trimer.
